Laboratory results reported in patent publication US20240199757A1 (UNIVERSITY OF CHICAGO, published 2024).

T1: Full-length cynomolgus NT5E (recombinant) (cynomolgus, UniProt P21589 27-549 (human entry))
T1 construct: also called cNT5E; cyno NT5E
T1 chain: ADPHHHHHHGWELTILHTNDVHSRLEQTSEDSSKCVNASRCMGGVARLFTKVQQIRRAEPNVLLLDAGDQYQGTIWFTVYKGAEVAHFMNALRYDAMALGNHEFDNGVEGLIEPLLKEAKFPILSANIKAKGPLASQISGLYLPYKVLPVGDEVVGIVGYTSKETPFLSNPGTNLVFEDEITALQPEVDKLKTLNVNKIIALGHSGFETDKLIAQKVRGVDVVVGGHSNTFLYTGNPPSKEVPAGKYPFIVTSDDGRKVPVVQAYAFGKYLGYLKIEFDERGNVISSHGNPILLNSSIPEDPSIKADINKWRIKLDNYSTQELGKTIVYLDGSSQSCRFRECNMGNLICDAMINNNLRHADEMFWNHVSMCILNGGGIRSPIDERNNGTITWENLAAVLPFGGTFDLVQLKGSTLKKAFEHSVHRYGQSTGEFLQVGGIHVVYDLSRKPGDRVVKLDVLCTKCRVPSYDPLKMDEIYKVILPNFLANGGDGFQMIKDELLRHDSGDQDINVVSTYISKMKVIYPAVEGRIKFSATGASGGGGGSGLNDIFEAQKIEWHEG

T2: Full-length human NT5E (recombinant, in-house) (human, UniProt P21589 27-549)
T2 construct: also called hNT5E; hNT5EWT
T2 sequence: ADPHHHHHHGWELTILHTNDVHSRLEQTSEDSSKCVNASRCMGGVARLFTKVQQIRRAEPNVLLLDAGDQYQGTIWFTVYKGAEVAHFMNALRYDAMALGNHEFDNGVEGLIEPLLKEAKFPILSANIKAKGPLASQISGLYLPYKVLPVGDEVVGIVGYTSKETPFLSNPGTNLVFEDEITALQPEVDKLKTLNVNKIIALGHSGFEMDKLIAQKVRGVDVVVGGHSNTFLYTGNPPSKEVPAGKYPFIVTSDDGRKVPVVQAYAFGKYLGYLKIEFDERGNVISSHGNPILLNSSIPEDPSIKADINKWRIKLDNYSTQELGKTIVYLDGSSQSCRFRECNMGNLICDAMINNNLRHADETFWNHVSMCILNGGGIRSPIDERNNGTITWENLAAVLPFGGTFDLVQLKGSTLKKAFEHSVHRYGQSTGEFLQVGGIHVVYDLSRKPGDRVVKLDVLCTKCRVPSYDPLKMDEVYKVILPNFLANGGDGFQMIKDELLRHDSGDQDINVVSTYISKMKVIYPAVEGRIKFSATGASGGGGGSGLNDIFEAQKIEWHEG


Key:
[1] = target: T1, Full-length cynomolgus NT5E …; assay: ELISA, biotinylated NT5E on neutravidin plate, 1 mM ATP
Experimental: (§1) (B) Protein ELISA: Protein-based multipoint ELISA was performed to estimate the affinity of the generated Fabs and IgGs to NT5E. The binding of the Fabs and IgGs to the closed form of NT5E were determined in ELISA buffer (HBST) supplemented with 10 μM zinc chloride and 1 mM ATP while the binding of the same to open form of NT5E were determined in ELISA buffer (HBST) without any cofactors. A fixed concentration of the immobilized target (50 nM) on ELISA plate was incubated with 3-fold serial dilutions of the purified Fabs and IgGs starting from 3 μM and 1 μM respectively for 15 min. The plates were washed and were subsequently incubated with a secondary HRP-conjugated anti-protein L monoclonal antibody (#32420, ThermoFisher, 1:6000 dilution). As with phage ELISA, the plates were again washed, developed with TMB substrate and quenched with 1.0 M HCl, and absorbance (Abs450) was determined. To determine the affinity (EC50), the data were fitted with a non-linear, 4-parameter logistic curve in OriginLab.

[2] = target: T2, Full-length human NT5E (recombinant, …); assay: DSF thermal shift, 1.5-fold molar excess of Fab, 1 mM ATP (NT5E alone 59° C. and 64° C.)
Experimental: With 1 mM ATP alone (red dashed line), the TM shifts from one transition at 49° C. to two transitions at TM 59° C. and 64° C. […] Thermal shift assays of substrate binding knock-out variants hNT5EDF (FIG. 2B) and hNT5EFF (FIG. 2C) show no change in thermal stability with the addition of ATP.
Thermal stability of samples was analyzed by differential scanning fluorimetry (DSF) using a real-time PCR instrument (Bio-Rad CFX384). Protein samples were mixed with 4× Sypro Orange at a final 4 μM concentration. For target/Fab complexes, 1.5-fold molar excess of Fab was used. All reactions were performed in triplicates in a 384-well plate. Thermal melting curves were monitored from 25° C. to 95° C. in steps of 0.5° C./30 s. Wavelengths of 490 and 575 nm were used for excitation and emission, respectively. The melting temperatures were inferred from the first derivative of the melting curves from the mean of triplicate runs using CFX software provided by the manufacturer.

[3] = target: T2, Full-length human NT5E (recombinant, …); assay: ELISA, biotinylated NT5E on neutravidin plate, no cofactors (apo)
Experimental: as §1

[4] = target: T1, Full-length cynomolgus NT5E …; assay: as above
Experimental: as §1

Binder | EC50 [1] [nM] | TM of NT5E in the presence of the Fab [2] [° C.] | EC50 [3] [nM] | EC50 [4] [nM]
1789 Fab (Fab, V domains shown) VH: EVQLVESGGGLVQPGGSLRLSCAASGFNVSYSSIHWVRQAPGKGLEWVASISSSSGYTYYADSVKGRFTISADTSKNTAYLQMNSLRAEDTAVYYCARNYWGWYPFYYFAFDYWGQGTLVTV VL: DIQMTQSPSSLSASVGDRVTITCRASQSVSSAVAWYQQKPGKAPKLLIYSASSLYSGVPSRFSGSRSGTDFTLTISSLQPEDFATYYCQQGWDYPITFGQGTKVEIKR | 28 | 66 |  | 
1789 IgG (antibody, V domains shown) VH: EVQLVESGGGLVQPGGSLRLSCAASGFNVSYSSIHWVRQAPGKGLEWVASISSSSGYTYYADSVKGRFTISADTSKNTAYLQMNSLRAEDTAVYYCARNYWGWYPFYYFAFDYWGQGTLVTVSS VL: DIQMTQSPSSLSASVGDRVTITCRASQSVSSAVAWYQQKPGKAPKLLIYSASSLYSGVPSRFSGSRSGTDFTLTISSLQPEDFATYYCQQGWDYPITFGQGTKVEIKR | 0.57 |  | 2.14 | 1.04
